The results in this text go back to publication PMC11782079.

Broadly, the Kd is a measure of binding affinity in units of concentration. A word on the stoichiometry N: it is the number of molecules, sites or subunits per partner or assembly.

The first assay has as its target FaRel2-Δ166–206 (Coprobacillus sp. D7). The assay can be described thus: ITC; ATfaRel2 or variant in the syringe at 200-150 uM, FaRel2 in the cell at 15-20 uM; 25 °C; 25 mM HEPES pH 7.6, 300 mM NaCl, 2 mM MgCl2, 1 mM TCEP.
With “ATfaRel2 antitoxin (wild type) (natural protein)”, the Kd is 3.3 µM.

The target of the next assay is Coprobacillus sp. D7 FaRel2 toxin, catalytically impaired Y128F variant (Coprobacillus sp. D7).
Test: not given
Take ATfaRel2 A50M (natural protein): the stoichiometry N was found to be 1.1.

In turn, ATfaRel2 F59A (natural protein) displayed a dissociation constant (Kd) of 2150 nM and a stoichiometry N of 0.99. For ATfaRel2 I45A (natural protein), in that order: 868 nM and 0.91. The substance ATfaRel2 V43A (natural protein) gave a stoichiometry N of 0.97. ATfaRel2 Y51A (natural protein) gave a Kd of 1520 nM and a stoichiometry N of 0.9.

As for ATfaRel2 Y54A (natural protein), the Kd amounted to 8750 nM and the stoichiometry N was 0.92. The substance “Coprobacillus sp. D7 ATfaRel2 antitoxin (natural protein)” yielded a stoichiometry N of 1.1.
